# According to PMC11272775, “Epigenetic memory is governed by an effector recruitment specificity toggle in Heterochromatin Protein 1” (Nature Communications, 2024):
# System: Swi6-Y (Swi6-T278Y) (Schizosaccharomyces pombe)
# Test: EMSA
# Settings: 20 mM Hepes pH 7.5, 4 mM Tris, 80 mM KCl, 0.1% Igepal CA-630, 0.2 mM EDTA, 2 mM DTT, 10% glycerol, 10 nM mononucleosome, 30 °C 45 min, 6% acrylamide 0.5x TBE …
substance,measurement,setting,value
H3K9me0 mononucleosome,binding signal (fold weaker than H3K9me3),"H3K9me0 histone, unmodified H3 (H3K9me0)",2.3
H3K9me3 mononucleosome,K half,"H3K9me3 histone, histone H3K9me3 (DNA unmodified)",39 nM
